Data as given in article PMC5101909, “Crosslinked duplex DNA nanogels that target specified proteins”.

How the values were obtained:
thrombin [1] = molecular target: T1, thrombin (UniProt P00734;P00734 328-363;364-622); assay: EMSA (agarose gel, SYBR Gold); aptamer polymer/thrombin 1/10; Nanogels generated in PBS; buffer, pH and temperature of thrombin binding assays not in the material (section 2.5 text missing)
albumin (BSA) = albumin (BSA) (bovine, UniProt P02769 25-607); assay: EtBr fluorescence (duplex displacement); EtBr-loaded nanogel; Nanogels generated in PBS; buffer, pH and temperature of thrombin binding assays not in the material (section 2.5 text missing); settings: label: EtBr intercalated; 11 bp GCTCCGGTTGG/CCAACCGGAGC; 5' overhangs 7 nt T (aptaDNA) and 12 nt T (coDNA); 3' overhang 9 nt TGTGGTTGG (aptaDNA)
Chain of albumin (BSA) (P02769 25-607): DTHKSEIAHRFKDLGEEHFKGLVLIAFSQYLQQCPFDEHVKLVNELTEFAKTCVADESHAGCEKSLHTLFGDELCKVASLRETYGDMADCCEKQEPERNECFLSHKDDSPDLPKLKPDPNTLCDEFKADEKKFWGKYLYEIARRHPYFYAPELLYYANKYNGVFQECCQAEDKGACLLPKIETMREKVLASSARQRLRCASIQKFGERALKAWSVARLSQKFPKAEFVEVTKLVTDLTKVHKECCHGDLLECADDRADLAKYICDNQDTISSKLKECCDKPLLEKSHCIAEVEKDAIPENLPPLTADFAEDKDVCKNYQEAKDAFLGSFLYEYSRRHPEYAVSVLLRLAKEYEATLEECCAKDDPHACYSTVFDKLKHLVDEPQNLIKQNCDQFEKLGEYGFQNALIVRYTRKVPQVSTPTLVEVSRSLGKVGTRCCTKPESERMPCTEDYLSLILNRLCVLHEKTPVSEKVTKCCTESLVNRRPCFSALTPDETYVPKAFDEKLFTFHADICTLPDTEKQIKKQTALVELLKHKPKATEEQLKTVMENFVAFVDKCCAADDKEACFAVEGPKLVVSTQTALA

thrombin [2] = molecular target: T1, thrombin; assay: EtBr fluorescence decrease (duplex displacement); EtBr-loaded nanogel; concentration dependent; Nanogels generated in PBS; buffer, pH and temperature of thrombin binding assays not in the material (section 2.5 text missing)

| Binder | binding result (thrombin [1]) | binding result (albumin (BSA)) | binding result (thrombin [2]) |
| --- | --- | --- | --- |
| TTTTTTTGCTCCGGTTGGTGTGGTTGG (structured_DNA, 5'-acrydite copolymerized with MPC (MPC/oligo 38/1)) [P(MPC/aptaDNA)] | binds | – | – |
| P(MPC/aptaDNA)/P(MPC/coDNA) nanogel (mixed, 5'-acrydite of both strands copolymerized with MPC (38/1 and 45/1)) DNA 1: TTTTTTTGCTCCGGTTGGTGTGGTTGG DNA 2: TTTTTTTTTTTTCCAACCGGAGC | – | no binding | binds |
